Experimental data: US20240408238

Tested on: AcrIIC5Smu

“Nme1Cas9-Nme2Cas9PID chimera (Nme1Cas9 with its PID replaced by that of Nme2Cas9)” was tested, and the “in vitro DNA cleavage by the PID-swapped chimera in the presence of Acr (10-fold ratio; ~30x higher Cas9 concentration)” value was “No inhibition was observed by AcrIIC5Smu on this protein chimera”.
